The target of data set [1] is T1, Aleuria aurantia lectin (AAL) (Aleuria aurantia, UniProt P18891).
T1 sequence (P18891 1-313): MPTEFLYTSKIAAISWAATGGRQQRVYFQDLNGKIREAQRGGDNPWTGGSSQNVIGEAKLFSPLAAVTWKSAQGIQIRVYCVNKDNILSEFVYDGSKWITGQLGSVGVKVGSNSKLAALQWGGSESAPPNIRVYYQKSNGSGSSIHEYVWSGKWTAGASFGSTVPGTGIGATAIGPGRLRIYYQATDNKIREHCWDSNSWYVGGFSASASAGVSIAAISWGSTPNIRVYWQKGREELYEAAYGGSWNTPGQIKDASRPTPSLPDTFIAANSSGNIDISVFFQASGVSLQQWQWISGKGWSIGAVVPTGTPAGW
The data set is described as follows: ELISA analysis of binding between lectin AAL and glycoproteins or released N-glycans. The settings on record: for AAL binding: glycoprotein coated on plate; for EC50: glycoprotein coated on plate (10 μg/ml), AAL-biotin serial dilution. From the text: FIG. 9 ELISA analysis of the binding between lectin AAL and glycoproteins or released N-glycans. The glycoproteins or released N-glycans (tagged with Fmoc) were immobilized on the plates and probed by serial dilutions of the lectin. A) AAL binding with RNase B (20) and fucosylated RNase B (21); B) AAL binding with non-fucosylated glycoform of rituximab (28) and fucosylated rituximab glycoform (30); C) AAL binding with the PNGase F released high-mannose N-glycans released from 20 and 21; D) ALL binding with the PNGase F released complex type N-glycans from 28 and 30.
The glycoprotein (20, 21, 28 or 30) (10 μg/ml) in a phosphate buffer (pH 7.5) was coated onto a 96-well plate (UltraCruz®) at 4° C. for overnight. After wash twice, 2% bovine serum albumin in PBS containing Tween® 20 (PBST buffer) was added to block the plate for 2 h. Subsequently, after washed twice again, a serial dilution of AAL-biotin ranging from 0.1 μM to 1000 μM in PBST buffer was added and the plate was incubated for 1 h. After washing, peroxidase streptavidin (2 μg/mL) (Jackson ImmunoResearch Inc.) was added and incubated for 1 h. Finally, 100 μL of substrate, 3, 3′, 5, 5′-tetramethylbenzidine was added for signal development. The reaction was stopped by the adding 100 μL of 20% sulfuric acid (v/v). The absorbance at 450 nm was measured using SpectraMax M5 microplate reader (Molecular Devices). For the binding of the N-glycans, the Fmoc-labeled N-glycans released from 20, 21, 28 and 30 (1 μg/ml) were coated on the plate and the ELISA analysis was performed in the same manner as that of the glycoproteins.

Another data set can be described thus: physchem. The settings on record: buffer, pH 7.4. The format is physicochemical. An excerpt: Initially, the D200 mutants were examined as potential glycosynthases using two types of activated fucosyl donors with opposite anomeric configuration as substrates. For nucleophile mutant such as D200G, a fucosyl fluoride with reversed anomeric configuration, β-fucosyl fluoride or β-fucosyl azide, should be applied to mimic the enzyme-substrate intermediate^52,53,67. However, β-glycosyl fluorides are quite unstable and are subjected to spontaneous hydrolysis in aq. solutions^42. Indeed, most successful glycosynthases have been derived so far from retaining β-glycosidases that take the α-glycosyl fluoride as donor substrate. […] Thus, the potential glycosylation activity of the nucleophilic mutants, including D200G, D200S, D200A, and D200S, were tested using both the β-glycosyl azide (1) and the β-glycosyl fluoride (2) as the donor substrates and the Fmoc-Asn(GlcNAc)-OH (4)^69 as the acceptor substrate (FIG. 3). The reactions were run with different amounts of enzymes and were monitored by reverse-phase HPLC analysis.

For data set [2] the following is noted: buffer; cited from earlier work.
Data set [3] is described as follows: Transglycosylation kinetics of AlfC α-fucosidase mutants. It counts as biochemical. To be noted: apparent; donor sugar 0.2 to 2.0 mM, acceptor 2.0 mM, sodium phosphate 0.1M pH 7.5, 42° C. As to the method:
The kinetic studies on transglycosylation were carried out at 42° C. in sodium phosphate (0.1 M, pH 7.5). The transglycosylation product was detected and quantitated by HPLC analysis. The concentration of the donor substrates (1-3) was varied from 0.2 to 2.0 mM, while that of the acceptor (4) was fixed (2 mM). KM and kcat values (strictly, apparent KM and kcat, as they were determined at a fixed, nonsaturating, co-substrate concentration) were determined by fitting the initial velocity curves to the Michaelis-Menten equation by nonlinear regression in GraFit.

Data set [4] can be described thus: Glycoligase (transfucosylation) activity on acceptor 4, pH and temperature profiles. To be noted: donor 3, acceptor 4, pH 7.5, 42° C. It counts as biochemical. As to the method:
A) pH profile; B) temperature profile of its catalysis. […] The transglycosylation product was quantitated by HPLC analysis. To investigate temperature profile of AlfC α-fucosidase in transglycosylation reaction, a mixture of donor sugar 3 (20 mM), acceptor sugar (4) (10 mM) and enzyme AlfC E274G (0.2 mg/mL) was incubated in a PBS buffer (0.1 M, pH7.5) containing 5% DMSO. The reactions were carried out for 20 min at various temperatures, including 25° C., 30° C., 35° C., 40° C., 45° C., 50° C. and 55° C. The transglycosylation product was quantitated by HPLC analysis.
Next, the potential glyco-ligase activity was tested of the general acid/base residue mutants using the α-fucosyl fluoride (3) as the donor substrate (FIG. 3).

Data set [5] is described as follows: Hydrolysis of α-fucosyl fluoride in the absence of the GlcNAc acceptor. The format is biochemical.
The next data set relates to rituximab. Briefly: Defucosylation of rituximab by wild-type AlfC α-fucosidase. The format is biochemical. An excerpt:
The potent transfucosylation activity of AlfC α-fucoligase towards glycopeptides and glycoproteins prompted further exploring of its application for glycoengineering of therapeutic monoclonal antibodies. Core fucosylation of the Fc domain N-glycans plays a pivotal role in modulating the functions of antibodies and their therapeutic efficacy^8,74. It was previously developed by the current inventors a chemoenzymatic Fc glycan remodeling method that consists of deglycosylation and glycosynthase-catalyzed glycan transfer to produce homogeneous Fc glycoforms^65,66,75. If the fucoligase mutant could act on intact antibody, then it would further expand the repertoire of the toolbox for antibody Fc glycan engineering. To test this possibility, rituximab (26) was selected as a model system. First, rituximab was deglycosylated with Endo-S followed by defucosylation with the wild type AlfC α-fucosidase to give the GlcNAc-rituximab (27) (FIG. 7). […] The non-fucosylated complex type glycoform (28) of rituximab was synthesized by the EndoS-D233Q catalyzed glycosylation with glycan oxazoline (24) as the donor, following previously published procedure^75. These two glycoforms (27 and 28) were used as potential substrates for examining the AlfC fucoligase mutants. […] The product was readily isolated by protein A affinity chromatography. To confirm the identity of the Fucα1,6GlcNAc-rituximab (29), the product was treated with protease IdeS which specifically hydrolyzes IgG antibody to release the monomeric Fc domain, and the released Fc was analyzed by ESI-MS. […] As described previously, Fucα1,6GlcNAc-rituximab (29) was an excellent substrate for EndoS-D233Q^75. Indeed, incubation of 29 with EndoS-D233Q and glycan oxazoline (24) gave the expected core-fucosylated complex type glycoform of rituximab (30) in excellent yield, further confirming that the 29 was the expected Fucα1,6GlcNAc-rituximab.
Finally, the direct fucosylation of the intact rituximab (28) was tested carrying the full size complex type Fc N-glycans. […]

Consider “28: non-fucosylated complex type glycoform of rituximab [compound 28]”, for which the AAL binding entry in data set [1] was “did not show any detectable affinity”.
In general, EC50 refers to the concentration that produces a half-maximal response. For “30: core-fucosylated complex type glycoform of rituximab [compound 30]”, in data set [1], the AAL binding result is reported as “specific recognition” and the half-maximal effective concentration (EC50) amounted to 15 µM. The “affinity for AAL relative to core-fucosylated RNase B (21)” value in data set [1] (glycoproteins) is “about 17 fold”.
The term half-life denotes the time in which the quantity being followed falls by half. The low end stands for fast loss, the high end for slow loss. As for `C[C@@H]1O[C@H](F)[C@@H](F)[C@H](O)[C@@H]1O` [compound 2, 2-deoxy-2-fluoro-β-fucosyl fluoride], in “physchem”, the half-life is 360 min.
Consider `C[C@@H]1O[C@H](F)[C@@H](O)[C@H](O)[C@@H]1O` [β-fucosyl fluoride], for which, in data set [2], the “half-life (spontaneous hydrolysis)” value is “ca. 20 min”.

B1: 21: core-fucosylated RNase B glycoforms carrying core fucosylated high-mannose glycans (protein, UniProt P61823 27-150, looked up)
Ribonuclease pancreatic: KETAAAKFERQHMDSSTSAASSSNYCNQMMKSRNLTKDRCKPVNTFVHESLADVQAVCSQKNVACKNGQTNCYQSYSTMSITDCRETGSSKYPNCAYKTTQANKHIIVACEGNPYVPVHFDASV
modifications: core-fucosylated high-mannose glycans
Turning to B1, in data set [1], the AAL binding entry is recorded as “specific binding” and the concentration for a half-maximal effect (EC50) amounted to 275 µM.

B2: 20: bovine ribonuclease B, natural glycoprotein with heterogeneous high-mannose type N-glycan (protein)
chain: KETAAAKFERQHMDSSTSAASSSNYCNQMMKSRNLTKDRCKPVNTFVHESLADVQAVCSQKNVACKNGQTNCYQSYSTMSITDCRETGSSKYPNCAYKTTQANKHIIVACEGNPYVPVHFDASV
Consider B2, for which the AAL binding result in data set [1] was “didn't show any binding”.

B3: E274G: Lactobacillus casei α1,6-fucosidase (AlfC) mutant at general acid/base residue E274 (protein)
chain: MNDNVAWFKQAKYGMMIHWGLYSLLAGEYRGESSSAYAEWIQSKFQIPNAEYGNLATAFNPLYFDAKKIVALAKQCGMQYLVVTTKHHDGFAMYHSKVDAYNVYDATPFHRDIIGELAEACQKAGLKFGLYYSQDLDWHDPNGGGYKSNDVETAGTTWDNSWDFPDEDQKNFDLCFDNKILPQIKEIMSNYGDIATAWFDVPMTLSEAQSQTIYDTVRELQPNCLINSRLGNGKYDFVSLGDNEIPKNKEDMNKTDVDYNEITGFKPSPLGLYGTAGTINDSWGFSYHDQNWKTPRTLYRYKQHLNDFGINYLLNVGLDPLGRVPMMAEENLLAAKALEDEANRL
Broadly, the Km is the concentration of substrate that gives half-maximal velocity. Take B3: in data set [3], the Michaelis constant (Km) was determined as 250 ± 30 µM and the kcat is 1.38 ± 0.15 × 10^2 min^−1. Moreover, the “catalytic activity to transfer fucose to GlcNAc of acceptor 4” value in data set [4] is “excellent catalysts for fucosylation”. Moreover, in data set [5], the “hydrolysis of α-fucosyl fluoride” value is “only hydrolyzed α-fucosyl fluoride slowly”.

B4: E274S: Lactobacillus casei α1,6-fucosidase (AlfC) mutant at general acid/base residue E274 (protein)
chain: MNDNVAWFKQAKYGMMIHWGLYSLLAGEYRGESSSAYAEWIQSKFQIPNAEYGNLATAFNPLYFDAKKIVALAKQCGMQYLVVTTKHHDGFAMYHSKVDAYNVYDATPFHRDIIGELAEACQKAGLKFGLYYSQDLDWHDPNGGGYKSNDVETAGTTWDNSWDFPDEDQKNFDLCFDNKILPQIKEIMSNYGDIATAWFDVPMTLSEAQSQTIYDTVRELQPNCLINSRLGNGKYDFVSLGDNEIPKNKEDMNKTDVDYNEITGFKPSPLGLYSTAGTINDSWGFSYHDQNWKTPRTLYRYKQHLNDFGINYLLNVGLDPLGRVPMMAEENLLAAKALEDEANRL
On to B4, for which, in data set [3], the Km worked out at 260 ± 30 µM and the kcat was 2.42 ± 0.14 × 10^2 min^−1. Further, the “catalytic activity to transfer fucose to GlcNAc of acceptor 4” value in data set [4] is listed as “excellent catalysts for fucosylation”. Further, the “hydrolysis of α-fucosyl fluoride” value in data set [5] is “only hydrolyzed α-fucosyl fluoride slowly”.

B5: wild type AlfC: α1,6-fucosidase from Lactobacillus casei (AlfC), wild type (protein, listed as Lactobacillus casei)
chain: MNDNVAWFKQAKYGMMIHWGLYSLLAGEYRGESSSAYAEWIQSKFQIPNAEYGNLATAFNPLYFDAKKIVALAKQCGMQYLVVTTKHHDGFAMYHSKVDAYNVYDATPFHRDIIGELAEACQKAGLKFGLYYSQDLDWHDPNGGGYKSNDVETAGTTWDNSWDFPDEDQKNFDLCFDNKILPQIKEIMSNYGDIATAWFDVPMTLSEAQSQTIYDTVRELQPNCLINSRLGNGKYDFVSLGDNEIPKNKEDMNKTDVDYNEITGFKPSPLGLYETAGTINDSWGFSYHDQNWKTPRTLYRYKQHLNDFGINYLLNVGLDPLGRVPMMAEENLLAAKALEDEANRL
Consider B5, for which the “hydrolytic (defucosylation) activity” value is “almost no activity” in the data set on rituximab (intact rituximab, before Endo-S treatment, listed as wild type AlfC α-fucosidase); “unable to remove the fucose moiety” in the data set on rituximab (intact rituximab, before Endo-S treatment, listed as wild-type AlfC α-fucosidase); “good hydrolytic activity” with rituximab (rituximab after Endo-S deglycosylation). Besides, in data set [5], the “hydrolysis of α-fucosyl fluoride” value was “could quickly hydrolyze the donor substrate”.
